Consider three molecules from PMC4081100, “A DNA-binding-site landscape and regulatory network analysis for NAC transcription factors in Arabidopsis thaliana”.

One data set addresses T1, GST-ANAC092(1-176) (Arabidopsis thaliana, UniProt Q9FKA0 1-176).
T1 sequence: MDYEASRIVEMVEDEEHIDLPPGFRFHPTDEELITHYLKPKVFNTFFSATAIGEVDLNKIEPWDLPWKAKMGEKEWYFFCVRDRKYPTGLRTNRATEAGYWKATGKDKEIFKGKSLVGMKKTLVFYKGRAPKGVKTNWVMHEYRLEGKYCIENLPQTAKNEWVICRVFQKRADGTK
In words: EMSA; EMSA with 75 pM 32P-labelled DNA, binding buffer as in cited refs 7 and 36; oligos annealed in 20 mM Tris-HCl pH 8.0, 20 mM MgCl2. The note with it: protein: recombinant, tags: GST, chain copies: 2, label: 32P.

A further data set addresses GST-NTL6(1-168) (Arabidopsis thaliana, UniProt Q9SCK6 1-168). The data set is described as above. The note with it: protein: recombinant; tags: GST; chain copies: 2; label: 32P; 5' overhangs 4 nt (GATC) on both strands.

Chain of GST-NTL6(1-168) (Q9SCK6 1-168): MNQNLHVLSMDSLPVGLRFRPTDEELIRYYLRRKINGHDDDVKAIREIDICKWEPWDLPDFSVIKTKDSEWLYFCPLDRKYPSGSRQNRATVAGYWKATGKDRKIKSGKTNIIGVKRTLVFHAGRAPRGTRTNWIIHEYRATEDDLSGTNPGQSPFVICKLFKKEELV

B1: MYB90 WT promoter (dsDNA)
DNA 1: GATCAGGTTCAGCTACGTCACCGATCCAGG
DNA 2: GATCCCTGGATCGGTGACGTAGCTGAACCT
As for B1, the binding result is reported as “binds” in the data set with GST-ANAC092(1-176) (5' overhangs 4 nt (GATC) on both strands) and “no binding” with GST-NTL6(1-168).

B2: PalNACBS (dsDNA)
DNA 1: CAGTCTTGCGTGTTGGAACACGCAACAGTC
DNA 2: GACTGTTGCGTGTTCCAACACGCAAGACTG
On to B2, for which, in the data set with GST-ANAC092(1-176) (blunt), the binding result is on record as “binds”.

B3: MYB90Synth (Synthetic promoter) (dsDNA)
DNA 1: GATCAGGTTCAGCTAAGTAACCGATCCAGG
DNA 2: GATCCCTGGATCGGTTACTTAGCTGAACCT
Turning to B3, in the data set with GST-NTL6(1-168), the binding result was “binds”.
